Reference: US20260193293A1, “PEPTIDES CAPABLE OF INHIBITING PROTEIN-PROTEIN INTERACTIONS AT GABAB1A SUBUNIT AND USES THEREOF” (UNIVERSITY OF COPENHAGEN, priority 2022, published 2026)
One block for each binder: values may come before it. Starred links: 1 amine or outer side, 2 acyl side, 3 side chain; linkers in the order of their positions; H or OH if unused. Non-standard residues stand in square brackets, D forms with d. Tyr(Bzl) = Obtyr, O-benzyl-L-tyrosine, O=C([C@H](Cc1ccc(OCc2ccccc2)cc1)N[*:1])[*:2]; Tyr(Et) = Oetyr, O-ethyl-L-tyrosine, CCOc1ccc(C[C@H](N[*:1])C(=O)[*:2])cc1; Tyr(Me) = Omtyr, O-methyl-L-tyrosine, COc1ccc(C[C@H](N[*:1])C(=O)[*:2])cc1; Obtyr = O-benzyl-L-tyrosine, O=C([C@H](Cc1ccc(OCc2ccccc2)cc1)N[*:1])[*:2]; Oetyr = O-ethyl-L-tyrosine, CCOc1ccc(C[C@H](N[*:1])C(=O)[*:2])cc1; 1Nal = N[C@@H](Cc1cccc2ccccc12)C(=O)O; 2Nal = N[C@@H](Cc1ccc2ccccc2c1)C(=O)O

How the values were obtained:
[1] = target: Sushi domains (SD1/2) protein of GABAB1a (GB1a); assay: FP competition vs TAMRA AJAP-1probe
[2] = target: Sushi domains (SD1/2) protein of the GABAB1a (GB1a) subunit, recombinant; assay: FP competition
Sushi domains (SD1/2) protein of the GABAB1a (GB1a) subunit, recombinant, sequence (Q9Z0U4 29-158): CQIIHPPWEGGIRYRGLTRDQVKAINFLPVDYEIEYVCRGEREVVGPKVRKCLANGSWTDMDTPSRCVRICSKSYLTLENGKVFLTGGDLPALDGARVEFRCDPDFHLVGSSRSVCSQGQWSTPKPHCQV

Sushi domains (SD1/2) protein of GABAB1a (GB1a), sequence (Q9Z0U4 29-158): as above

Ki [1]: 113 nM | Ki [2]: 100 nM
B3: EDDSDVWW(Oetyr)GADTD (peptide)
peptide: Ac-EDDSDVWW[Tyr(Et)]GADTD-NH2
SMILES: CCOc1ccc(C[C@H](NC(=O)[C@H](Cc2c[nH]c3ccccc23)NC(=O)[C@H](Cc2c[nH]c3ccccc23)NC(=O)[C@@H](NC(=O)[C@H](CC(=O)O)NC(=O)[C@H](CO)NC(=O)[C@H](CC(=O)O)NC(=O)[C@H](CC(=O)O)NC(=O)[C@H](CCC(=O)O)NC(C)=O)C(C)C)C(=O)NCC(=O)N[C@@H](C)C(=O)N[C@@H](CC(=O)O)C(=O)N[C@H](C(=O)N[C@@H](CC(=O)O)C(N)=O)[C@@H](C)O)cc1

Ki [1]: 6.5 nM
B4: peptide 34 (peptide)
peptide: Ac-EDDD[Oetyr]IDWGPTSDDD-NH2
SMILES: CCOc1ccc(C[C@H](NC(=O)[C@H](CC(=O)O)NC(=O)[C@H](CC(=O)O)NC(=O)[C@H](CC(=O)O)NC(=O)[C@H](CCC(=O)O)NC(C)=O)C(=O)N[C@H](C(=O)N[C@@H](CC(=O)O)C(=O)N[C@@H](Cc2c[nH]c3ccccc23)C(=O)NCC(=O)N2CCC[C@H]2C(=O)N[C@H](C(=O)N[C@@H](CO)C(=O)N[C@@H](CC(=O)O)C(=O)N[C@@H](CC(=O)O)C(=O)N[C@@H](CC(=O)O)C(N)=O)[C@@H](C)O)[C@@H](C)CC)cc1

Ki [1]: 109 nM | Ki [2]: 100 nM
B6: EDDSDVWW(Omtyr)GADTD (peptide)
peptide: Ac-EDDSDVWW[Tyr(Me)]GADTD-NH2
SMILES: COc1ccc(C[C@H](NC(=O)[C@H](Cc2c[nH]c3ccccc23)NC(=O)[C@H](Cc2c[nH]c3ccccc23)NC(=O)[C@@H](NC(=O)[C@H](CC(=O)O)NC(=O)[C@H](CO)NC(=O)[C@H](CC(=O)O)NC(=O)[C@H](CC(=O)O)NC(=O)[C@H](CCC(=O)O)NC(C)=O)C(C)C)C(=O)NCC(=O)N[C@@H](C)C(=O)N[C@@H](CC(=O)O)C(=O)N[C@H](C(=O)N[C@@H](CC(=O)O)C(N)=O)[C@@H](C)O)cc1

Ki [1]: 5.3 nM
B9: peptide 32 (peptide)
peptide: Ac-EDDD[Oetyr]IDWYDSDDD-NH2
SMILES: CCOc1ccc(C[C@H](NC(=O)[C@H](CC(=O)O)NC(=O)[C@H](CC(=O)O)NC(=O)[C@H](CC(=O)O)NC(=O)[C@H](CCC(=O)O)NC(C)=O)C(=O)N[C@H](C(=O)N[C@@H](CC(=O)O)C(=O)N[C@@H](Cc2c[nH]c3ccccc23)C(=O)N[C@@H](Cc2ccc(O)cc2)C(=O)N[C@@H](CC(=O)O)C(=O)N[C@@H](CO)C(=O)N[C@@H](CC(=O)O)C(=O)N[C@@H](CC(=O)O)C(=O)N[C@@H](CC(=O)O)C(N)=O)[C@@H](C)CC)cc1

Ki [1]: 9.5 nM
B11: peptide 35 (peptide)
peptide: Ac-EDDD[Obtyr]IDWGPTSDDD-NH2
SMILES: CC[C@H](C)[C@H](NC(=O)[C@H](Cc1ccc(OCc2ccccc2)cc1)NC(=O)[C@H](CC(=O)O)NC(=O)[C@H](CC(=O)O)NC(=O)[C@H](CC(=O)O)NC(=O)[C@H](CCC(=O)O)NC(C)=O)C(=O)N[C@@H](CC(=O)O)C(=O)N[C@@H](Cc1c[nH]c2ccccc12)C(=O)NCC(=O)N1CCC[C@H]1C(=O)N[C@H](C(=O)N[C@@H](CO)C(=O)N[C@@H](CC(=O)O)C(=O)N[C@@H](CC(=O)O)C(=O)N[C@@H](CC(=O)O)C(N)=O)[C@@H](C)O

The next lines start with the binder.

B1: EDDS(2Nala)… (peptide)
peptide: Ac-EDDS[2Nal]VWWGGADTD-NH2
SMILES: CC(=O)N[C@@H](CCC(=O)O)C(=O)N[C@@H](CC(=O)O)C(=O)N[C@@H](CC(=O)O)C(=O)N[C@@H](CO)C(=O)N[C@@H](Cc1ccc2ccccc2c1)C(=O)N[C@H](C(=O)N[C@@H](Cc1c[nH]c2ccccc12)C(=O)N[C@@H](Cc1c[nH]c2ccccc12)C(=O)NCC(=O)NCC(=O)N[C@@H](C)C(=O)N[C@@H](CC(=O)O)C(=O)N[C@H](C(=O)N[C@@H](CC(=O)O)C(N)=O)[C@@H](C)O)C(C)C
Ki [1]: 43 nM | fold increased affinity compared to Asp207Trp [2]: 2 fold

B2: EDDSDVWW(Obtyr)GADTD (peptide)
peptide: Ac-EDDSDVWW[Tyr(Bzl)]GADTD-NH2
SMILES: CC(=O)N[C@@H](CCC(=O)O)C(=O)N[C@@H](CC(=O)O)C(=O)N[C@@H](CC(=O)O)C(=O)N[C@@H](CO)C(=O)N[C@@H](CC(=O)O)C(=O)N[C@H](C(=O)N[C@@H](Cc1c[nH]c2ccccc12)C(=O)N[C@@H](Cc1c[nH]c2ccccc12)C(=O)N[C@@H](Cc1ccc(OCc2ccccc2)cc1)C(=O)NCC(=O)N[C@@H](C)C(=O)N[C@@H](CC(=O)O)C(=O)N[C@H](C(=O)N[C@@H](CC(=O)O)C(N)=O)[C@@H](C)O)C(C)C
Ki [1]: 88 nM | Ki [2]: 100 nM

B5: EDDS(Oetyr)… (peptide)
peptide: Ac-EDDS[Tyr(Et)]VWWGGADTD-NH2
SMILES: CCOc1ccc(C[C@H](NC(=O)[C@H](CO)NC(=O)[C@H](CC(=O)O)NC(=O)[C@H](CC(=O)O)NC(=O)[C@H](CCC(=O)O)NC(C)=O)C(=O)N[C@H](C(=O)N[C@@H](Cc2c[nH]c3ccccc23)C(=O)N[C@@H](Cc2c[nH]c3ccccc23)C(=O)NCC(=O)NCC(=O)N[C@@H](C)C(=O)N[C@@H](CC(=O)O)C(=O)N[C@H](C(=O)N[C@@H](CC(=O)O)C(N)=O)[C@@H](C)O)C(C)C)cc1
Ki [1]: 46 nM | Ki [2]: 46.3 nM | fold increased affinity compared to Asp207Trp [2]: 2 fold

B7: EDDS(Obtyr)… (peptide)
peptide: Ac-EDDS[Tyr(Bzl)]VWWGGADTD-NH2
SMILES: CC(=O)N[C@@H](CCC(=O)O)C(=O)N[C@@H](CC(=O)O)C(=O)N[C@@H](CC(=O)O)C(=O)N[C@@H](CO)C(=O)N[C@@H](Cc1ccc(OCc2ccccc2)cc1)C(=O)N[C@H](C(=O)N[C@@H](Cc1c[nH]c2ccccc12)C(=O)N[C@@H](Cc1c[nH]c2ccccc12)C(=O)NCC(=O)NCC(=O)N[C@@H](C)C(=O)N[C@@H](CC(=O)O)C(=O)N[C@H](C(=O)N[C@@H](CC(=O)O)C(N)=O)[C@@H](C)O)C(C)C
Ki [1]: 28 nM | Ki [2]: 27.1 nM | fold increased affinity compared to Asp207Trp [2]: 4 fold

B8: EDDSDVWW(2Nala)GADTD (peptide)
peptide: Ac-EDDSDVWW[2Nal]GADTD-NH2
SMILES: CC(=O)N[C@@H](CCC(=O)O)C(=O)N[C@@H](CC(=O)O)C(=O)N[C@@H](CC(=O)O)C(=O)N[C@@H](CO)C(=O)N[C@@H](CC(=O)O)C(=O)N[C@H](C(=O)N[C@@H](Cc1c[nH]c2ccccc12)C(=O)N[C@@H](Cc1c[nH]c2ccccc12)C(=O)N[C@@H](Cc1ccc2ccccc2c1)C(=O)NCC(=O)N[C@@H](C)C(=O)N[C@@H](CC(=O)O)C(=O)N[C@H](C(=O)N[C@@H](CC(=O)O)C(N)=O)[C@@H](C)O)C(C)C
Ki [1]: 75 nM | Ki [2]: 100 nM

B10: EDDSDVWW(1Nala)GADTD (peptide)
peptide: Ac-EDDSDVWW[1Nal]GADTD-NH2
SMILES: CC(=O)N[C@@H](CCC(=O)O)C(=O)N[C@@H](CC(=O)O)C(=O)N[C@@H](CC(=O)O)C(=O)N[C@@H](CO)C(=O)N[C@@H](CC(=O)O)C(=O)N[C@H](C(=O)N[C@@H](Cc1c[nH]c2ccccc12)C(=O)N[C@@H](Cc1c[nH]c2ccccc12)C(=O)N[C@@H](Cc1cccc2ccccc12)C(=O)NCC(=O)N[C@@H](C)C(=O)N[C@@H](CC(=O)O)C(=O)N[C@H](C(=O)N[C@@H](CC(=O)O)C(N)=O)[C@@H](C)O)C(C)C
Ki [1]: 114 nM | Ki [2]: 100 nM
